According to patent US20250230236A1 (SINGAPORE HEALTH SERVICES PTE, published 2025):

Target: T1, GRP78 (UniProt P11021 19-654)
T1 construct: Endogenous protein of PC-9 cells
Assay: cross-immunoprecipitation
Method: FIGS. 6A-6B show A) immunoprecipitation with GR 6A04. Boxed area was excised for mass spectrometry. B) Mass spectrometry analysis of excised region identified the top 5 putative antigens after removal of non-specific hits found in the same region in the Column Control lane. […] The antigen identity was then validated by a pull-down with commercial antibodies against the target, and a cross-probe of the immunoprecipitated products with GR 6A04, and vice-versa. GRP78 was tested by cross-IP and ruled out as possible antigen for GR 6A04.
Immunoprecipitation (IP) was conducted using the automated Phynexus MEA system (Phynexus Inc., USA). GR6A04 was captured onto Protein G PhyTip columns containing 5 ul of resin bed. The column was then washed with PBS to remove unbound proteins, and PC-9 membrane protein extract was introduced to bind to GR6A04 that has been captured on the column. The column was then washed with Wash Buffer II (140 mM NaCl, pH7.4) before elution at low pH with Elution Buffer (200 mM NaH2PO4/140 mM NaCl pH 2.5) and neutralized immediately with 1 M Tris-Cl pH 9.0. The IP product is then subjected to analysis by Western blot.

T1 sequence (P11021 19-654 limits assumed): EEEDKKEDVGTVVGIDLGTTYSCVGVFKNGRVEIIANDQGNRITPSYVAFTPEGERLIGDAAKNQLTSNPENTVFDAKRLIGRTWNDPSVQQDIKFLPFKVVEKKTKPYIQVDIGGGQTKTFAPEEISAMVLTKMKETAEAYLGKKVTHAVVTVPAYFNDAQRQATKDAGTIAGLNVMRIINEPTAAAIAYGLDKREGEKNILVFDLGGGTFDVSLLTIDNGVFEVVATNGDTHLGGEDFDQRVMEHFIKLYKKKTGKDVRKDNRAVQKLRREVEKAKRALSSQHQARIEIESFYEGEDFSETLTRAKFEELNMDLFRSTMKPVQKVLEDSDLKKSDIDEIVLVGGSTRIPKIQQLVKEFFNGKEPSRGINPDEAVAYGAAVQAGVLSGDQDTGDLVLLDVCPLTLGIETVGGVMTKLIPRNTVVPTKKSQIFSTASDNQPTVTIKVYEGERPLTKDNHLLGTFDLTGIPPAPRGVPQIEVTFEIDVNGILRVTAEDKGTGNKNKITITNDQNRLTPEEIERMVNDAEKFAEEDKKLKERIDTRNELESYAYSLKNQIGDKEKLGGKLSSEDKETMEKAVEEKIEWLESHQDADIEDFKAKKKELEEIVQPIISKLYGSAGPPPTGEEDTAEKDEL

binding result: no binding
B1: GR6A04 monoclonal antibody (antibody, mouse IgG1, V domains shown)
VH: SGPELVKPGASVKMSCKASGNTFTSYVMHWVKQKPGQGLEWIGYINPYNDGTKYNEKFKGKATLTSDKSSSTAYMELSSLTSEDSAVYYCARSTARATPYFYAMDYWGQGTSVTVSS
VL: DILMTQSPSSLAVTAGEKVTMRCKSSQSLLWSVNQNSYLSWYQLKQGQPPKLLLYGASIRESWVPDRFTGSGSGTDFTLTISNVHVEDLAVYYCQHNHGSFLPYTFGGGTKLEIK
notes: also called mAb GR 6A04
